Results on 22 molecules are retold here after patent US20260049138A1 (Chugai, published 2026).

B1: GLS3000 S25D one-arm antibody (antibody, human IgG1, kappa, L234A L235A, N297A, name in Kabat numbering)
heavy: QVQLVESGGGVVQPGRSLRLSCAASGFTFSNAWMHWVRQAPGKGLEWVAQIKAKSNNYATYYAESVKGRFTISRDDSKNSLYLQMNSLKTEDTAVYYCRYVHYGAYYGVDAWGQGTTVTVSSASTKGPSVFPLAPSSKSTSGGTAALGCLVKDYFPEPVTVSWNSGALTSGVHTFPAVLQSSGLYSLSSVVTVPSSSLGTQTYICNVNHKPSNTKVDKKVEPKSCDKTHTCPPCPAPEAAGGPSVFLFPPKPKDTLMISRTPEVTCVVVDVSHEDPEVKFNWYVDGVEVHNAKTKPREEQYASTYRVVSVLTVLHQDWLNGKEYKCKVSNKALPAPIEKTISKAKGQPREPQVYTLPPSRCELTKNQVSLSCAVKGFYPSDIAVEWESNGQPENNYKTTPPVLDSDGSFFLVSKLTVDKSRWQQGNVFSCSVMHEALHNHYTQKSLSLSPDYKDDDDK
chain: EPKSSDKTHTCPPCPAPELLGGPSVFLFPPKPKDTLMISRTPEVTCVVVDVSHEDPEVKFNWYVDGVEVHNAKTKPREEQYNSTYRVVSVLTVLHQDWLNGKEYKCKVSNKALPAPIEKTISKAKGQPREPQVCTLPPSRDELTKNQVSLWCLVKGFYPSDIAVEWESNGQPENNYKTTPPVLDSDGSFFLYSKLTVDKSRWQQGNVFSCSVMHEALHNRYTQKSLSLSP
light: DIVMTQSPLSLPVTPGEPASISCRDSQSLVHSNRNTYLHWYQQKPGQAPRLLIYKVSNRFSGVPDRFSGSGSGTDFTLKISRVEAEDVGVYYCGQGTQVPYTFGQGTKLEIKRTVAAPSVFIFPPSDEQLKSGTASVVCLLNNFYPREAKVQWKVDNALQSGNSQESVTEQDSKDSTYSLSSTLTLSKADYEKHKVYACEVTHQGLSSPVTKSFNRGEC
B2: GLS3000 S27aG one-arm antibody (antibody, human IgG1, kappa, L234A L235A, N297A, name in Kabat numbering)
heavy: B1 heavy
chain: B1 chain
light: B1 light with D25S, S28G
B3: GLS3000 S27eA one-arm antibody (antibody, human IgG1, kappa, L234A L235A, N297A, name in Kabat numbering)
heavy: B1 heavy
chain: B1 chain
light: B1 light with D25S, S32A
B4: GLS3000 S27aY one-arm antibody (antibody, human IgG1, kappa, L234A L235A, N297A, name in Kabat numbering)
heavy: B1 heavy
chain: B1 chain
light: B1 light with D25S, S28Y
B5: GLS3000 S25T one-arm antibody (antibody, human IgG1, kappa, L234A L235A, N297A, name in Kabat numbering)
heavy: B1 heavy
chain: B1 chain
light: B1 light with D25T
B6: GLS3000 S27eF one-arm antibody (antibody, human IgG1, kappa, L234A L235A, N297A, name in Kabat numbering)
heavy: B1 heavy
chain: B1 chain
light: B1 light with D25S, S32F
B7: GLS3000 S25V one-arm antibody (antibody, human IgG1, kappa, L234A L235A, N297A, name in Kabat numbering)
heavy: B1 heavy
chain: B1 chain
light: B1 light with D25V
B8: GLS3000 S27aI one-arm antibody (antibody, human IgG1, kappa, L234A L235A, N297A, name in Kabat numbering)
heavy: B1 heavy
chain: B1 chain
light: B1 light with D25S, S28I
B9: GLS3000 S26E one-arm antibody (antibody, human IgG1, kappa, L234A L235A, N297A, name in Kabat numbering)
heavy: B1 heavy
chain: B1 chain
light: B1 light with D25S, S26E
B10: GLS3000 S25L one-arm antibody (antibody, human IgG1, kappa, L234A L235A, N297A, name in Kabat numbering)
heavy: B1 heavy
chain: B1 chain
light: B1 light with D25L
B11: GLS3000 S27aE one-arm antibody (antibody, human IgG1, kappa, L234A L235A, N297A, name in Kabat numbering)
heavy: B1 heavy
chain: B1 chain
light: B1 light with D25S, S28E
B12: GLS3000 S27aD one-arm antibody (antibody, human IgG1, kappa, L234A L235A, N297A, name in Kabat numbering)
heavy: B1 heavy
chain: B1 chain
light: B1 light with D25S, S28D
B13: GLS3000 S27aP one-arm antibody (antibody, human IgG1, kappa, L234A L235A, N297A, name in Kabat numbering)
heavy: B1 heavy
chain: B1 chain
light: B1 light with D25S, S28P
B14: GLS3000 S26P one-arm antibody (antibody, human IgG1, kappa, L234A L235A, N297A, name in Kabat numbering)
heavy: B1 heavy
chain: B1 chain
light: B1 light with D25S, S26P
B15: GLS3000 S26D one-arm antibody (antibody, human IgG1, kappa, L234A L235A, N297A, name in Kabat numbering)
heavy: B1 heavy
chain: B1 chain
light: B1 light with D25S, S26D
B16: GLS3000 S27aN one-arm antibody (antibody, human IgG1, kappa, L234A L235A, N297A, name in Kabat numbering)
heavy: B1 heavy
chain: B1 chain
light: B1 light with D25S, S28N
B17: GLS3000 S27eD one-arm antibody (antibody, human IgG1, kappa, L234A L235A, N297A, name in Kabat numbering)
heavy: B1 heavy
chain: B1 chain
light: B1 light with D25S, S32D
B18: GLS3000 S25I one-arm antibody (antibody, human IgG1, kappa, L234A L235A, N297A, name in Kabat numbering)
heavy: B1 heavy
chain: B1 chain
light: B1 light with D25I
B19: GLS3000 S25P one-arm antibody (antibody, human IgG1, kappa, L234A L235A, N297A, name in Kabat numbering)
heavy: B1 heavy
chain: B1 chain
light: B1 light with D25P
B20: GLS3000 S27eE one-arm antibody (antibody, human IgG1, kappa, L234A L235A, N297A, name in Kabat numbering)
heavy: B1 heavy
chain: B1 chain
light: B1 light with D25S, S32E
B21: GLS3000 S25M one-arm antibody (antibody, human IgG1, kappa, L234A L235A, N297A, name in Kabat numbering)
heavy: B1 heavy
chain: B1 chain
light: B1 light with D25M
B22: GLS3000 S25E one-arm antibody (antibody, human IgG1, kappa, L234A L235A, N297A, name in Kabat numbering)
heavy: B1 heavy
chain: B1 chain
light: B1 light with D25E

Numbering of substitutions follows the chain as printed. Names may count otherwise.
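Further: Light-chain single-residue variant antibodies injected over amine-coupled CD3ε homodimer on a CM4 chip at 25 °C, bound amount divided by that of the GLS3000-containing antibody.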

For this experiment, the target named is T1, CD3ε homodimer protein (human, UniProt P07766 23-126, limits assumed).
T1 construct: also called CD3 (CD3ε)
T1 sequence (P07766 23-126 limits assumed): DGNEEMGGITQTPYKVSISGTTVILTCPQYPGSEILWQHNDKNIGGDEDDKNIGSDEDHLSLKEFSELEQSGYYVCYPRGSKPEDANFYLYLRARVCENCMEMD
Put plainly: SPR Biacore T200, CD3ε homodimer on chip. (In general: SPR reads the build-up and loss of mass on a sensor chip optically.)
In the case of B1, the “ratio of amount bound vs unaltered GLS3000” value (“ratio of amount bound” for short) turned out to be 0.18.
Regarding B2, the “ratio of amount bound” value turned out to be 1.03.
As to B3, the “ratio of amount bound” value came to 1.03.
Next, B4: 1.1; B5: 0.83; B6: 1.32.
The value for B7 was 0.73; that for B8 was 1; that for B9 was 0.74.
B10: the “ratio of amount bound” value stood at 0.24.
Turning to B11, the “ratio of amount bound” value was 0.81.
B12: the “ratio of amount bound” value came to 0.79.
The value for B13 was 0.99; that for B14 was 0.78; that for B15 was 0.86.
With B16, the “ratio of amount bound” value worked out at 1.1.
The value for B17 was 0.69.
As for B18, the “ratio of amount bound” value was 0.53.
Turning to B19, the “ratio of amount bound” value was 1.01.
The value for B20 was 0.76; that for B21 was 0.31.
Next, B22: 0.21.
